Data from PMC8651051.

Columns and labels:
Conditions in all cases: N = 1 experiment
CV664_993_GS = target: CV664_993_GS
CV993_521_GS = target: CV993_521_GS
CV503_993_EL = target: CV503_993_EL
CV503_664_GS = target: CV503_664_GS

Substance: full-length SARS-CoV-2 spike D614G, expressed on the cell surface (from UniProt P0DTC2) Alpha (B.1.1.7)
- percent of parent (CV664_993_GS): 257 % of D614G
- percent of parent (CV993_521_GS): 222 % of D614G
- percent of parent (CV503_993_EL): 214 % of D614G
- percent of parent (CV503_664_GS): 236 % of D614G

Substance: full-length SARS-CoV-2 spike D614G, expressed on the cell surface (from UniProt P0DTC2) Beta (B.1.351)
- percent of parent (CV503_993_EL): 170 % of D614G
- percent of parent (CV503_664_GS): 202 % of D614G
